Results reported in patent US20240425607A1, “IL-18BP ANTAGONIST ANTIBODIES AND THEIR USE IN MONOTHERAPY AND COMBINATION THERAPY IN THE TREATMENT OF CANCER” (Compugen Ltd., priority 2023, published 2024).

How the values were obtained:
[1] = target: T1, recombinant human IL18-BP (Homo sapiens, UniProt O95998); assay: MEL624:TIL assay; type: cell-based; settings: rhIL-18 30 ng/ml + rhIL-18BP 1 μg/ml, vs isotype control
T1 construct: purchased R&D systems 119-BP
T1 sequence (O95998 31-194): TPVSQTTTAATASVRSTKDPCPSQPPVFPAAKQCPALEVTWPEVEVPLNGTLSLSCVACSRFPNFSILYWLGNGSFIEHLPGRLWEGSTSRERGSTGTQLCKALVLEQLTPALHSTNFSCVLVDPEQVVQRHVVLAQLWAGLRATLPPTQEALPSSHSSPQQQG
Protocol: Human MEL624 cells were thawed and grown in DMEM with 10% FBS, 1% Glutamax, 1% Penicillin-Streptomycin Solution and 1% HEPES buffer. The cells were then seeded at 75 k cells/well in a 96 well plate in the assay medium (IMDM with 10% human serum, 1% Glutamax, 1% MEM eagle, 1% Sodium Pyruvate and 1% Penicillin-Streptomycin Solution) and incubated 1 hour in 37° C., 5% CO2 incubator before co-culture with human tumor infiltrating lymphocytes that were previously expanded using known melanoma antigens (TILs). Human TILs were thawed in full TIL media and 75 k cells/well were co-cultured with the MEL624 cells to create an effector: target ratio of 1:1. The co-cultured cells were then treated with rhIL-18 (30 ng/ml) and rhIL-18BP (1 μg/ml) for 30 min in 37° C., 5% CO2 incubator to allow IL-18:IL-18BP complex formation. After 30 minutes, anti-human IL-18BP mAb (ADI-71722, dose titration, 30 μg/ml-0.01 μg/ml, dilution factor of 1:3) or relevant isotype control (hIgG1 30 μg/ml) were added to the co-culture to examine its capability to restore IL-18 activity. Cells and all added solutions were prepared in full assay medium to a final volume of 200 μl/well. Plates were incubated for 24 hours in 37° C., 5% CO2 incubator, after which the supernatant was collected for cytokine secretion evaluation. All tests were done in triplicates and each repeated with TIL four donors. […]

endogenous IL-18BP = target: T2, endogenous IL-18BP (Homo sapiens, UniProt O95998); assay: TIL:MEL624 co-culture with endogenous IL-18BP levels; type: cell-based; settings: 5 μg/ml; IL-18 3.7 ng/ml, no added IL-18BP; 18 hours; vs isotype
T2 construct: endogenous in cells; host or cells: MEL624 cells and human TILs
T2 sequence (O95998 31-194): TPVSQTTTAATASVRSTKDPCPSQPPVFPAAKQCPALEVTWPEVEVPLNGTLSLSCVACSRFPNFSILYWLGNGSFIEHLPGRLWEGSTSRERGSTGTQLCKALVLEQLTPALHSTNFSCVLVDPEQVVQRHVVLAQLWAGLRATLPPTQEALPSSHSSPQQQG
Protocol: A. Schematic representation of assay setup. MEL624 cells were co-cultured with human TILs that were previously enriched for MART1 or gp100 peptide-specific clones. […] The co-culture was set for 18 hours following which IFNg levels were measured in supernatants. […] Representative examples from two TIL donors are shown.

[2] = target: T3, human IL18BP-Fc binding to human IL-18 (Homo sapiens, UniProt O95998); assay: Blocking of hIL18BP-hIL-18 interaction by ELISA, IL18BP plate bound; settings: 1 ng/ml human IL-18, compared with clone W19089C
T3 sequence (O95998 31-194): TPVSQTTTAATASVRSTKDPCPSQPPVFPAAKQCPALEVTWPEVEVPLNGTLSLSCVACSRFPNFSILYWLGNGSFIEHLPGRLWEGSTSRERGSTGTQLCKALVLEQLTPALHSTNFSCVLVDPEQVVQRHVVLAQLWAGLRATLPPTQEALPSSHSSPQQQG
Protocol: This assay was utilized to identify anti-human IL18BP Abs that inhibit the binding interaction between human IL18BP- and its counterpart, human IL-18. […] Human IL18BP-Fc protein was coated on the wells of a high binding plate overnight at 4° C. (1 μg/ml, 100 μl/well volume). Plates were washed three times with PBS-T buffer (1×PBS pH 7.4, 0.05% Tween20) incubated with 250 μL blocking buffer (2.5% skim milk in PBS) at room temperature (RT) for 2 hr. Blocking buffer was removed and plates were washed three times with PBS-T buffer. Plate-bound ligands were incubated with anti-human IL18BP Abs in 1% BSA in PBS buffer two times serially diluted (2.5-0.019 μg/ml, 100 μL/well volume) at RT for 1 h. Plates were washed one time with PBS. Plate-bound ligands were incubated with human IL-18 (cat. 9124-IL, R&D) in 1% BSA in PBS buffer (1 ng/ml, 100 μL/well volume) at RT for 1 h. Plates were washed three times with PBS-T (0.05% Tween20 in PBS). Biotinylated anti-IL18 detection antibody, cat. D045-6, R&D 1:1000 in 1% BSA in PBS buffer was added (100 μL/well). This was incubated at RT for 1 hr, and plates were washed again. Peroxidase Streptavidin, Jackson, cat. 016-030-084 1:1000 in 2.5% skim milk in PBS was added (100 μL/well) for 1 hr at RT. […] The HRP reaction was stopped by adding 50 μL 1N HCl and absorbance signals at 450 nm were read on a luminescence Reader-EnSpire (Perkin Elmar). […]

B1: ADI-71739: anti-IL18-BP antibody, sequences in FIG. 2K; 66716 lineage (antibody, V domains shown)
VH: QLQLQESGPGLVKPSETLSLTCTVSGGSISSPDYPWGWIRQPPGKGLEWIGSIYYQGATYYNPSLKSRVTISVDTSKNQFSLKLSSVTAADTAVYYCARGPYRQLFDYWGQGTLVTVSS
VL: DIQMTQSPSSVSASVGDRVTITCRASQGISSWLAWYQQKPGKAPKLLIYAASSLQSGVPSRFSGSGSGTDFTLTISSLQPEDFATYYCQQGSVFPYTFGGGTKVEIK
IFNγ secretion from TILs [1]: increase IFNγ secretion from TILs
IFNg release by tumor infiltrating lymphocytes (endogenous IL-18BP): increased IFNg release
Blocking effect on binding of human IL18BP to human IL-18 [2]: superior to Biolegend Ab
